Assay results: patent US20100291677A1
Values belong to the substance of their own block, whether it stands above or below them.

Tests used:
Assay in all cases: cell-based or functional assay
[1] = target: FSTL1 (Follistatin-like 1) protein (human) (UniProt Q12841)
[2] = target: IL-10 protein (UniProt P22301)
[3] = target: IL-13Ra2 (interleukin 13 alpha 2 receptor) protein (human) (UniProt Q14627)
[4] = target: MCP1 (monocyte chemoattractant protein-1) protein (human) (UniProt P13500)
[5] = target: TGF-beta (UniProt P01137)
UniProt P01137, sequence (P01137 279-390 limits assumed): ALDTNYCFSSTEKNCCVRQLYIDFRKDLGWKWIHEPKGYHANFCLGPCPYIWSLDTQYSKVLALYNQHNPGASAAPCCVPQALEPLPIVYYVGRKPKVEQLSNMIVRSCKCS

[6] = target: TSP1 (thrombospondin-1) protein (human) (UniProt P07996)
UniProt P07996, sequence (P07996 19-1170 limits assumed): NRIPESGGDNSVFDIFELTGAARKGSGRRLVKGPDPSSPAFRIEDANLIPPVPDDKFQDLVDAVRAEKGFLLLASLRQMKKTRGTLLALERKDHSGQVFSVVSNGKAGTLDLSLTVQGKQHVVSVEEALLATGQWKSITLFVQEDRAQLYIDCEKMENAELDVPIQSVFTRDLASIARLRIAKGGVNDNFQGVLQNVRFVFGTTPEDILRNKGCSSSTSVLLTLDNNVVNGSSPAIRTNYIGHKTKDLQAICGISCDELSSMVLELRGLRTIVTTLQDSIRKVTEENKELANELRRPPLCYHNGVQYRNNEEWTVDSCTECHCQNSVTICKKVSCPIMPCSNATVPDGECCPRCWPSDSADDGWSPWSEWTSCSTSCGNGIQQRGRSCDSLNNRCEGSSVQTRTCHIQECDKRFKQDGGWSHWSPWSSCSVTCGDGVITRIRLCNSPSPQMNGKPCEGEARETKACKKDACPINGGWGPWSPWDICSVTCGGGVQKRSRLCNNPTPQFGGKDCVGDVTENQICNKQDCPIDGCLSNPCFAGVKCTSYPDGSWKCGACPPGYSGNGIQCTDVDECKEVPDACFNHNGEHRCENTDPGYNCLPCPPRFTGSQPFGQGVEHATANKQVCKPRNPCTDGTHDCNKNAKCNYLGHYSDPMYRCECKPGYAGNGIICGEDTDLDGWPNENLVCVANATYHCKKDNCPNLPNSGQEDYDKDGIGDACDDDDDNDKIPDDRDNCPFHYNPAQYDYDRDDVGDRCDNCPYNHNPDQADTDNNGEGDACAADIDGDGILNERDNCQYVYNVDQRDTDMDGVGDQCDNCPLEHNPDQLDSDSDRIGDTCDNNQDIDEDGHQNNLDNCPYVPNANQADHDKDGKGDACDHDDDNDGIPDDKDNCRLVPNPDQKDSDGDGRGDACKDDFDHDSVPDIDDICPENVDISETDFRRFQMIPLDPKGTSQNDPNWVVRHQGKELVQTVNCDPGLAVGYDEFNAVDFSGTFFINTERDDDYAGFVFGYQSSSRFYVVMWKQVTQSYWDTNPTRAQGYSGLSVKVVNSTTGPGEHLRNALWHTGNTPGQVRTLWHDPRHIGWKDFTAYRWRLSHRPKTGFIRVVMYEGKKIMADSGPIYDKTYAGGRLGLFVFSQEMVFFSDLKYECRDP

UniProt P13500, sequence (P13500 24-99 limits assumed): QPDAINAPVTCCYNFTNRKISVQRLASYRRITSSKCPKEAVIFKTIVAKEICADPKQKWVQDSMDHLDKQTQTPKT
UniProt Q14627, sequence (Q14627 27-380 limits assumed): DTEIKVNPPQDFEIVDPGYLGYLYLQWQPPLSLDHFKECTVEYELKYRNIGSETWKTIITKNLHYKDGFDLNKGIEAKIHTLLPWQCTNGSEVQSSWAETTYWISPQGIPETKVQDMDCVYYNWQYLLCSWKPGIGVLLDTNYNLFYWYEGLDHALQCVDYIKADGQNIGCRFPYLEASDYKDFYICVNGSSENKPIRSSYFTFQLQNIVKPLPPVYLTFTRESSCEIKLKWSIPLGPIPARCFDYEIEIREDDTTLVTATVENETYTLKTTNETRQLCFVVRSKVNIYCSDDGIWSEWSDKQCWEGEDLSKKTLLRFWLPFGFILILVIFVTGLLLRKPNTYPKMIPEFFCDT
UniProt Q12841, sequence (Q12841 21-308 limits assumed): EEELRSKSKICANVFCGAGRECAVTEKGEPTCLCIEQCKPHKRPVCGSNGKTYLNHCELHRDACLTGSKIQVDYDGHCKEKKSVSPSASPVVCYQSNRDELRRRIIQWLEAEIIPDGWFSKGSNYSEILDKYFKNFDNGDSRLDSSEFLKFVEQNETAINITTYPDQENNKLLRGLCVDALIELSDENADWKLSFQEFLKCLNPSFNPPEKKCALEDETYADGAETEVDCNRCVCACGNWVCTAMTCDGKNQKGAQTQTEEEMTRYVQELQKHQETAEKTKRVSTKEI
UniProt P22301, sequence (P22301 19-178 limits assumed): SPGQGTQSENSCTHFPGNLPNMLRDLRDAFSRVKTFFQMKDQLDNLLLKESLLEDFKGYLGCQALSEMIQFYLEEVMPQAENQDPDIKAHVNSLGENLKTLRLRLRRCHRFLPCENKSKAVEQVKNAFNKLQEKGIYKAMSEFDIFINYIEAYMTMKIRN

expression level of FoxP3 protein in CD4+ cells, F3 clone with antibody (FIG. 6) [2]: 11.4
expression level of FoxP3 protein in CD4+ cells, F3 clone with antibody (FIG. 7) [2]: 30.9
expression level of FoxP3 protein in CD4+CD25+ cells, F3 clone with antibody [2]: 29.9
expression level of FoxP3 protein in CD4+CD25- cells, F3 clone with antibody [2]: 28.1
Substance: anti-IL-10 antibody (R&D #MAB2171)

FoxP3 protein expression in CD8+ cells, F3 cells (FIG. 13) [4]: 12
decrease in cellular infiltration capability of F3 cells (matrigel Transwell, antibody at 1 ug/ml) [4]: 45%
expression level of FoxP3 protein in CD4+ cells, F3 clone with antibody (FIG. 6; 35.34 without) [4]: 16.3
expression level of FoxP3 protein in CD4+ cells, F3 clone with antibody (FIG. 7; 38.39 without) [4]: 22.9
expression level of FoxP3 protein in CD4+CD25+ cells, F3 clone with antibody [4]: 22.1
expression level of FoxP3 protein in CD4+CD25- cells, F3 clone with antibody [4]: 19
expression of FoxP3 protein enhanced by the culture supernatant of B11 clone (FIG. 8) [4]: 4.69
Substance: anti-MCP1 antibody (BD PharMingen #551226)

Continued, substance first:

Substance: anti-FSTL1 antibody (R&D #MAB1694)
decrease in cellular infiltration capability of F3 cells (matrigel Transwell, antibody at 1 ug/ml) [1]: 45%
expression level of FoxP3 protein in CD4+ cells, F3 clone with antibody (FIG. 6; 35.34 without) [1]: 14.9
expression level of FoxP3 protein in CD4+ cells, F3 clone with antibody (FIG. 7; 38.39 without) [1]: 34.7
expression level of FoxP3 protein in CD4+CD25+ cells, F3 clone with antibody [1]: 29.9
expression level of FoxP3 protein in CD4+CD25- cells, F3 clone with antibody [1]: 32.6

Substance: anti-IL-13Ra2 antibody (R&D #AF146)
FoxP3 protein expression in CD8+ cells, B11 cells (FIG. 14) [3]: 10.2
expression level of FoxP3 protein in CD4+ cells, F3 clone with antibody (FIG. 6) [3]: 11.9
expression of FoxP3 protein enhanced by the culture supernatant of B11 clone (FIG. 8; 23.69 without antibody) [3]: 7.6

Substance: anti-TGF-beta1 antibody (R&D #MAB246)
expression level of FoxP3 protein in CD4+ cells, F3 clone with antibody (FIG. 6) [5]: 23.4
expression level of FoxP3 protein in CD4+ cells, F3 clone with antibody (FIG. 7) [5]: 30.6
expression level of FoxP3 protein in CD4+CD25+ cells, F3 clone with antibody [5]: 28.9
expression level of FoxP3 protein in CD4+CD25- cells, F3 clone with antibody [5]: 28.4

Substance: anti-TSP1 antibody (ABCAM #ab3131)
FoxP3 protein expression in CD8+ cells, F3 cells (FIG. 13) [6]: 5.28
expression level of FoxP3 protein in CD4+ cells, F3 clone with antibody (FIG. 6; 35.34 without) [6]: 9.26
expression level of FoxP3 protein in CD4+ cells, F3 clone with antibody (FIG. 7; 38.39 without) [6]: 21.4
expression level of FoxP3 protein in CD4+CD25+ cells, F3 clone with antibody [6]: 27.8
expression level of FoxP3 protein in CD4+CD25- cells, F3 clone with antibody [6]: 16.6
